Assay results taken from patent publication US5360895A, “Derivatized gold clusters and antibody-gold cluster conjugates” (priority 1992, dated 1994).

Columns and labels:
[1] = Thermal stability of gold clusters; type: physicochemical
human colon carcinoma = assay: In vivo biodistribution of radiogold cluster 17-1A conjugates in nude mice bearing human tumors; conditions: 24 hr after injection; for blood, % of injected dose per gram of tissue / bone, % of injected dose per gram of tissue / gut, % of injected dose per gram of tissue / heart, % of injected dose per gram of tissue / kidneys, % of injected dose per gram of tissue / liver, % of injected dose per gram of tissue / lung, % of injected dose per gram of tissue / muscle, % of injected dose per gram of tissue / spleen, % of injected dose per gram of tissue / stomach, % of injected dose per gram of tissue / tumor, % of injected dose per gram of tissue: normalized to 25 g animals
Description: Nude mice bearing human colon carcinoma or melanoma tumors were injected with radioactive gold clusters conjugated to anti-tumor antibodies. Two antibodies were gold labeled, one (17-1A) against the human colon carcinoma and another non-relevant antibody, H2 4B5 anti-influenza. The non-relevant tumor (melanoma) and non-relevant gold conjugated antibody (H2 4B5) served as controls. A total of 53 mice were used. In order to assess the efficacy of using gold labeled Fab' versus whole IgG, both types of antibody were labeled and tested. In addition, two crosslinking arms between the gold cluster and antibody were used, one, as described in the preparation example, was N-methoxycarbonyl maleimide (NMCM), whereas the other was n-maleimidobenzoyl-N-hydroxysuccinimide ester (MBS), This was to test if a different covalent crosslinker between the gold cluster and antibody or antibody fragment yielded conjugates with different stabilities or body distributions in vivo.
In vivo biodistribution of radiogold cluster 17-1A conjugates. Data,
after injection is expressed in % of injected dose per gram of tissue.
Tumor to normal tissue ratios are given in parentheses. Three or four
sample were averaged; normalized to 25 g animals.

[2] = tested on: human colon carcinoma cells (LS180); assay: In vitro cell binding of 17-1A-Au11 conjugates, human colon carcinoma (radioactivity of gold); conditions: for % bound to tumor cells (human colon carcinoma): percent of applied radioactive gold bound after incubation and washing, average ± s.d. of 2 samples
Description: (§5) The 17-1A Fab' fragment-(radioactive gold)-undecagold cluster conjugate was incubated in vitro with tumor cells (LS180- a cell culture of human colon carcinoma) and non tumor cells (WM164 - a cell culture of melanoma as control) and the radioactivity of the gold was used to assay binding.
(§6) bound to cells after incubation and washing.
(§7) entry is an average (+ s.d.) of 2 samples.

[3] = tested on: human colon carcinoma cells; assay: Radioimmunoassay, cell binding of gold labeled F(ab')2 to cultured human colon carcinoma cells; type: cell-based; conditions: 17-1A; in words
Description: (§1) Both of these methods were used to prepare F(ab')2 -Au11 conjugates using 17-1A mouse monoclonal antibody which is specific for human colorectal tumors. After preparation, this labeled antibody was tested to find if its immunoreactivity had been altered. A radioimmunoassay was performed using cell binding to cultured human colon carcinoma cells and to melanoma cells (the control).

melanoma cells = assay: Radioimmunoassay, cell binding of gold labeled F(ab')2 to melanoma cells (control); type: cell-based; conditions: 17-1A; in words
Description: as §1

melanoma cells (WM164) = assay: In vitro cell binding of 17-1A-Au11 conjugates, control melanoma (radioactivity of gold); conditions: for % bound to control cells (melanoma): percent of applied radioactive gold bound after incubation and washing, average ± s.d. of 2 samples
Description: as §5, §6, §7

[4] = tested on: melanoma cells (cell line WM 164); assay: Silver enhanced staining of control melanoma cells, light microscope; type: cell-based; conditions: approximately 45 minutes developer
Description: (§2) Assuming each call has approx. 10^6 antibody binding sites, a ten fold molar excess over this of undecagold cluster-labeled 17-1A monoclonal antibody was applied. Cells were incubated at room temperature for one hour on a wrist shaker device. The cells were then centrifuged at 1100 rpm for 5 minutes and the supernatent discarded. Additional buffer was added to resuspend the cells and after 3 minutes they were centrifuged again. Three of these washes were done. As a control, melanoma cells (cell line WM 164) were also prepared in a similar fashion. Cells were concentrated onto glass microscope slides using a Cytospin device. […] UV exposure for 5 minutes prior to development enhanced this color.

[5] = tested on: Human colon carcinoma cells (cell line LS180); assay: Silver enhanced staining of human colon carcinoma cells, light microscope; type: cell-based; conditions: approximately 45 minutes developer
Description: Human colon carcinoma cells (cell line LS180) were grown in tissue culture media. The cells were harvested with a brief trypsin treatment and centrifuged. They were then resuspended in phosphate buffered saline with 5% IgG free horse serum.
as §2

[6] = tested on: colorectal carcinoma cells; assay: In vitro test of Fab'-Au11 with colorectal carcinoma cells, radiolabeled second antibody; type: cell-based, human
Description: (§3) The antibody used is "17-1A", commercially available from Centocor, Inc. These antibody-cluster conjugates were also assayed by electron microscopy, high pressure liquid chromatography, and spectroscopy and appeared to follow the normal course of results indicated in Examples 4 and 5. The number of gold clusters bound to each Fab' in this example was 0.7-1.0.
(§4) The in vitro test involved incubating the Fab'-Au11 with either colorectal carcinoma cells or a control melanoma for one hour, centrifugation to isolate the cell-bound antibody, and assay of the bound antibody with a second antibody [to F(ab')2 ] which was itself radiolabeled with iodine. A titer curve was produced.

control melanoma = assay: In vitro test of Fab'-Au11 with control melanoma, radiolabeled second antibody; type: cell-based; conditions: preliminary in vitro testing, 17-1A
Description: as §3, §4

Molecule | Tumor to normal tissue ratio, blood (human colon carcinoma) | Tumor to normal tissue ratio, bone (human colon carcinoma) | Tumor to normal tissue ratio, gut (human colon carcinoma) | Tumor to normal tissue ratio, heart (human colon carcinoma) | Tumor to normal tissue ratio, kidneys (human colon carcinoma) | Tumor to normal tissue ratio, liver (human colon carcinoma) | Tumor to normal tissue ratio, lung (human colon carcinoma) | Tumor to normal tissue ratio, muscle (human colon carcinoma) | Tumor to normal tissue ratio, spleen (human colon carcinoma) | Tumor to normal tissue ratio, stomach (human colon carcinoma) | blood, % of injected dose per gram of tissue (human colon carcinoma) | bone, % of injected dose per gram of tissue (human colon carcinoma) | gut, % of injected dose per gram of tissue (human colon carcinoma) | heart, % of injected dose per gram of tissue (human colon carcinoma) | kidneys, % of injected dose per gram of tissue (human colon carcinoma) | liver, % of injected dose per gram of tissue (human colon carcinoma) | lung, % of injected dose per gram of tissue (human colon carcinoma) | muscle, % of injected dose per gram of tissue (human colon carcinoma) | spleen, % of injected dose per gram of tissue (human colon carcinoma) | stomach, % of injected dose per gram of tissue (human colon carcinoma) | also measured
Au55 [P(PhCONHCH3)3 ]11 P(PhCONHCH3)2 [derivatized Au55 cluster, Au55 [P(PhCONHCH3)3 ]11 P(PhCONHCH3)2 [PhCONH(CH2)3 N(CO)2 (CH)2 ]] | – | – | – | – | – | – | – | – | – | – | – | – | – | – | – | – | – | – | – | – | temperature above which the cluster deteriorates rapidly [1]: above 70 °C
F(ab')2 -Au11: F(ab')2 -Au11 conjugate of 17-1A mouse monoclonal antibody specific for human colorectal tumors (conjugate, chains of the INN, looked up, F(ab')2 undecagold cluster label, F(ab')2 -Au11 conjugate of 17-1A mouse monoclonal antibody specific for human colorectal tumors) VH: QVQLQQSGAELVRPGTSVKVSCKASGYAFTNYLIEWVKQRPGQGLEWIGVINPGSGGTNYNEKFKGKATLTADKSSSTAYMQLSSLTSDDSAVYFCARDGPWFAYWGQGTLVTVSA VL: NIVMTQSPKSMSMSVGERVTLTCKASENVVTYVSWYQQKPEQSPKLLIYGASNRYTGVPDRFTGSGSATDFTLTISSVQAEDLADYHCGQGYSYPYTFGGGTKLEIK | 1.5 | 3.5 | 5.3 | 3.4 | 0.1 | 0.8 | 1.8 | 8.6 | 1.3 | 9.1 | 5.6 ± 0.4 % of injected dose per gram of tissue | 2.4 ± 0.2 % of injected dose per gram of tissue | 1.6 ± 0.2 % of injected dose per gram of tissue | 3.2 ± 0.4 % of injected dose per gram of tissue | 117.0 ± 20 % of injected dose per gram of tissue | 10.5 ± 0.4 % of injected dose per gram of tissue | 4.6 ± 0.1 % of injected dose per gram of tissue | 0.98 ± 0.08 % of injected dose per gram of tissue | 6.4 ± 0.8 % of injected dose per gram of tissue | 0.93 ± 0.19 % of injected dose per gram of tissue | tumor, % of injected dose per gram of tissue (human colon carcinoma): 8.4 ± 0.6 % of injected dose per gram of tissue; % bound to tumor cells (human colon carcinoma) [2]: 16.13 ± 0.02%; binding to the tumor cells versus native unlabeled F(ab')2 [3]: virtually identical binding to the tumor cells as did native unlabeled F(ab')2; binding to the control cells (melanoma cells): no binding to the control cells; radioactive gold on the non-tumor cells (melanoma cells (WM164); WM164, text statement on Table 1, "or background for F(ab')2"): < 0.4%; % bound to control cells (melanoma) (melanoma cells (WM164)): 0.30 ± 0.03%
undecagold cluster-labeled 17-1A monoclonal antibody: undecagold cluster-labeled 17-1A monoclonal antibody (conjugate, chains of the INN, looked up, undecagold cluster label) VH: QVQLQQSGAELVRPGTSVKVSCKASGYAFTNYLIEWVKQRPGQGLEWIGVINPGSGGTNYNEKFKGKATLTADKSSSTAYMQLSSLTSDDSAVYFCARDGPWFAYWGQGTLVTVSA VL: NIVMTQSPKSMSMSVGERVTLTCKASENVVTYVSWYQQKPEQSPKLLIYGASNRYTGVPDRFTGSGSATDFTLTISSVQAEDLADYHCGQGYSYPYTFGGGTKLEIK | – | – | – | – | – | – | – | – | – | – | – | – | – | – | – | – | – | – | – | – | staining of control cells after silver developer [4]: clear and showed virtually no staining; staining of cells after silver developer [5]: became brown in color, easily identifiable in the light microscope
IgG-Au11: 17-1A whole IgG labeled with monomaleimidopropyl undecagold cluster, about 2 Au clusters per IgG (conjugate, chains of the INN, looked up, undecagold cluster label, 17-1A whole IgG labeled with monomaleimidopropyl undecagold cluster, about 2 Au clusters per IgG) VH: QVQLQQSGAELVRPGTSVKVSCKASGYAFTNYLIEWVKQRPGQGLEWIGVINPGSGGTNYNEKFKGKATLTADKSSSTAYMQLSSLTSDDSAVYFCARDGPWFAYWGQGTLVTVSA VL: NIVMTQSPKSMSMSVGERVTLTCKASENVVTYVSWYQQKPEQSPKLLIYGASNRYTGVPDRFTGSGSATDFTLTISSVQAEDLADYHCGQGYSYPYTFGGGTKLEIK | 2.5 | 3.6 | 7.2 | 3.1 | 0.5 | 1.7 | 2.3 | 10.0 | 0.8 | 11.6 | 3.2 ± 0.6 % of injected dose per gram of tissue | 2.2 ± 0.3 % of injected dose per gram of tissue | 1.1 ± 0.3 % of injected dose per gram of tissue | 2.6 ± 0.4 % of injected dose per gram of tissue | 17.1 ± 3.1 % of injected dose per gram of tissue | 4.6 ± 0.7 % of injected dose per gram of tissue | 3.4 ± 0.9 % of injected dose per gram of tissue | 0.80 ± 0.23 % of injected dose per gram of tissue | 9.5 ± 0.3 % of injected dose per gram of tissue | 0.69 ± 0.20 % of injected dose per gram of tissue | tumor, % of injected dose per gram of tissue (human colon carcinoma): 8.0 ± 3.2 % of injected dose per gram of tissue; % bound to tumor cells (human colon carcinoma) [2]: 14.32 ± 0.92%; % bound to control cells (melanoma) (melanoma cells (WM164)): 0.77 ± 0.08%
Fab'-Au11: 17-1A monoclonal antibody Fab' fragment covalently coupled to the undecagold cluster (radioactive gold in Tables 1 and 2) (conjugate, chains of the INN, looked up, Fab' undecagold cluster label) VH: QVQLQQSGAELVRPGTSVKVSCKASGYAFTNYLIEWVKQRPGQGLEWIGVINPGSGGTNYNEKFKGKATLTADKSSSTAYMQLSSLTSDDSAVYFCARDGPWFAYWGQGTLVTVSA VL: NIVMTQSPKSMSMSVGERVTLTCKASENVVTYVSWYQQKPEQSPKLLIYGASNRYTGVPDRFTGSGSATDFTLTISSVQAEDLADYHCGQGYSYPYTFGGGTKLEIK | 1.9 | 6.6 | 5. | 3.7 | 0.06 | 1.0 | 2.5 | 13.2 | 2.3 | 11.2 | 3.4 ± 0.3 % of injected dose per gram of tissue | 0.97 ± 0.02 % of injected dose per gram of tissue | 1.3 ± 0.1 % of injected dose per gram of tissue | 1.7 ± 0.1 % of injected dose per gram of tissue | 103.0 ± 32 % of injected dose per gram of tissue | 5.6 ± 0.5 % of injected dose per gram of tissue | 2.5 ± 0.04 % of injected dose per gram of tissue | 0.48 ± 0.06 % of injected dose per gram of tissue | 2.8 ± 0.4 % of injected dose per gram of tissue | 0.57 ± 0.14 % of injected dose per gram of tissue | tumor, % of injected dose per gram of tissue (human colon carcinoma): 6.4 ± 1.1 % of injected dose per gram of tissue; localization of radioactive gold on tumor cells ([2]; LS180 cells, in words): localized completely on the tumor cells; % bound to tumor cells (human colon carcinoma) [2]: 7.80 ± 0.52%; antibody activity and specificity ([6]; one hour incubation, titer curve): antibody activity and specificity were preserved; specificity for the tumor ([6]; preliminary in vitro testing, 17-1A): retains its specificity for the tumor; % bound to control cells (melanoma) (melanoma cells (WM164)): 1.92 ± 0.17%; binding to a control melanoma (control melanoma): does not bind to a control melanoma
